Experiment [1] addresses T1, human CD3 E&D complex protein (Sino Biological Inc., CT026H0323H) (human, UniProt P07766 23-126; P04234 22-105).
T1 construct: bought heterodimer; also called human CD3 protein (CT026H0323H)
As to the kind of experiment: BLI, antibody on sensor. The protocol:
(§1) 100 μl SD buffer, various antibodies, human CD3 E&D complex protein (Sino Biological Inc., CT026H0323H), and cynomolgus monkey CD3 E&D complex protein (Sino Biological Inc., CT032-00323H) were added into 96-well black polystyrene semi-quantitative micro-well plate (Greiner, 675076) respectively. Fortebio Octet Red 96 was used for detection, and the sensor position was selected according to the sample position. The setting parameters of the instrument are as follows: operation steps: Baseline, Loading-1 nm, Baseline, Association and Dissociation; the operation time of each step depends on the speed of sample association and dissociation. The rotational speed is 1000 rpm and the temperature is 30° C. ForteBio Octet analysis software was used to analyze KD value.
On the technique in general: Biolayer interferometry detects binding as a change in optical thickness at a sensor tip.

For experiment [2], the target named is T2, cynomolgus monkey CD3 E&D complex protein (Sino Biological Inc., CT032-00323H) (cynomolgus monkey, UniProt Q95LI5 22-117; Q95LI8 22-105).
T2 construct: bought heterodimer
T2 sequence (Q95LI5 22-117, chain 1 of 2): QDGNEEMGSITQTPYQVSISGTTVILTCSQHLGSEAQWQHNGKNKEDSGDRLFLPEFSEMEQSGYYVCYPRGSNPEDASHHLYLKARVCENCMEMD
T2 sequence (Q95LI8 22-105, chain 2 of 2): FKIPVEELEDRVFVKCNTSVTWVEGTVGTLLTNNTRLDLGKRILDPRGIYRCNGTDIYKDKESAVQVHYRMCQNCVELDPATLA
Put plainly: BLI, antibody on sensor. As for the experimental part: as §1

T1 sequence (P07766 23-126, chain 1 of 2): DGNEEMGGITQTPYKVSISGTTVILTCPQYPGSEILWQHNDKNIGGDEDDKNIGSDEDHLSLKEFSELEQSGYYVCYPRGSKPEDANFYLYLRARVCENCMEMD
T1 sequence (P04234 22-105, chain 2 of 2): as the sequence (Q95LI8 22-105, chain 2 of 2) above, with V5I, K15N, V20I, T32S, N33D, N34I, A64T, N74S, L83V counted along it

B1: hzsp34.27 (antibody, human IgG1, kappa, L234A L235A, V domains shown)
VH: EVQLVESGGGLVQPGGSLKLSCAASGFTFNTYAMNWVRQASGKGLEWVGRIRSKYNNYATYYADSVKDRFTISRDDSKNTLYLQMNSLKTEDTAVYYCARHGNFGNSYVSWFAYWGQGTTVTVSS
VL: EIVMTQSPATLSVSPGERATLSCRSSTGAVTTSNYANWYQQKPGQAPRLLIYGTNKRAPGIPARFSGSGSGTEFTLTISSLQSEDFAVYYCALWYSNLWVFGQGTKLTVLR
notes: IgG1 L234A L235A, kappa
As to B1, the binding result in experiment [1] and in experiment [2] was “no binding” in each case.

B2: hzsp34.13 (antibody, human IgG1, lambda, L234A L235A, V domains shown)
VH: EVQLVESGGGLVQPGGSLKLSCAASGFTFNTYAMNWVRQASGKGLEWVGRIRSKYNNYATYYADSVKDRFTISRDDSKSTLYLQMNSLKTEDTAVYYCARHGNFGNSYVSWFAYWGQGTTVTVSS
VL: QAVVTQEPSLTVSPGGTVTLTCRSSTGAVTTSNYANWVQQKPGQAPRTLIGGTNKRAPGVPARFSGSLLGGKAALTLLGAQPEDEAEYYCALWYSNLWVFGQGTKLTVLG
notes: IgG1 L234A L235A, lambda
For B2, in experiment [1], the Kd is 4.33 nM, the dissociation rate constant (koff) is 0.00466 s⁻¹ and the kon turned out to be 1.08e+06 M⁻¹ s⁻¹. For the same molecule, in experiment [2], the affinity, expressed as Kd, was 1.75 nM; the koff was found to be 0.00164 s⁻¹; the kon came out at 937000 M⁻¹ s⁻¹.

B3: hzsp34.39 (antibody, human IgG1, kappa, L234A L235A, V domains shown)
VH: EVQLVESGGGLVQPGGSLKLSCAASGFTFNTYAMNWVRQASGKGLEWVGRIRSKYNNYATYYADSVKDRFTISRDDSKSTLYLQMNSLKTEDTAVYYCARHGNFGQSYVSWFAYWGQGTTVTVSS
VL: EIVMTQSPATLSVSPGERATLSCRSSTGAVTTSNYANWVQQKPGQAPRGLIGGTNKRAPGVPARFSGSGSGTEFTLTISSLQSEDFAVYYCALWYSNLWVFGQGTKLTVLR
notes: IgG1 L234A L235A, kappa
Turning to B3, in experiment [1], the Kd is 7.85 nM, the koff was determined as 0.00354 s⁻¹ and the kon was 451000 M⁻¹ s⁻¹. Moreover, in experiment [2], the Kd was 7.1 nM, the koff amounted to 0.00203 s⁻¹ and the association rate constant (kon) is 286000 M⁻¹ s⁻¹.

B4: hzsp34.30 (antibody, human IgG1, kappa, L234A L235A, V domains shown)
VH: EVQLVESGGGLVQPGGSLKLSCAASGFTFNTYAMNWVRQASGKGLEWVARIRSKYNNYATYYADSVKDRFTISRDDSKSTLYLQMNSLKTEDTAVYYCARHGNFGQSYVSWFAYWGQGTTVTVSS
VL: EIVMTQSPATLSVSPGERATLSCRSSTGAVTTSNYANWYQQKPGQAPRLLIYGTNKRAPGIPARFSGSGSGTEFTLTISSLQSEDFAVYYCALWYSNLWVFGQGTKLTVLR
notes: IgG1 L234A L235A, kappa
For the molecule B4, the binding result in experiment [1] and in experiment [2] was “no binding” in each case.

B5: hzsp34.7 (antibody, human IgG1, lambda, L234A L235A, V domains shown)
VH: EVQLVESGGGLVQPGGSLKLSCAASGFTFNTYAMNWVRQASGKGLEWVGRIRSKYNNYATYYADSVKDRFTISRDDSKNTLYLQMNSLKTEDTAVYYCARHGNFGNSYVSWFAYWGQGTTVTVSS
VL: QAVVTQEPSLTVSPGGTVTLTCRSSTGAVTTSNYANWFQQKPGQAPRTLIYGTNKRAPWTPARFSGSLLGGKAALTLLGAQPEDEAEYYCALWYSNLWVFGQGTKLTVLG
notes: IgG1 L234A L235A, lambda
With B5, in experiment [1], the binding result is “no binding”. Moreover, in experiment [2], the Kd is 1.66 nM, the koff was determined as 0.000463 s⁻¹ and the kon worked out at 279000 M⁻¹ s⁻¹.

B6: hzsp34.34 (antibody, human IgG1, kappa, L234A L235A, V domains shown)
VH: EVQLVESGGGLVQPGGSLKLSCAASGFTFNTYAMNWVRQASGKGLEWVGRIRSKYNNYATYYADSVKDRFTISRDDSKSTLYLQMNSLKTEDTAVYYCARHGNFGQSYVSWFAYWGQGTTVTVSS
VL: EIVMTQSPATLSVSPGERATLSCRSSTGAVTTSNYANWVQQKPGQAPRLLIGGTNKRAPGVPARFSGSGSGTEFTLTISSLQSEDFAVYYCALWYSNLWVFGQGTKLTVLR
notes: IgG1 L234A L235A, kappa
Take B6: the binding result in experiment [1] and in experiment [2] was “no binding” in each case.

B7: hzsp34.43 (antibody, human IgG1, kappa, L234A L235A, V domains shown)
VH: EVQLVESGGGLVQPGGSLKLSCAASGFTFNTYAMNWVRQASGKGLEWVGRIRSKYNNYATYYADSVKDRFTISRDDSKSTLYLQMNSLKTEDTAVYYCARHGNFGNSYVSWFAYWGQGTTVTVSS
VL: EIVMTQSPATLSVSPGERATLSCRSSTGAVTTSNYANWVQQKPGQAPRGLIGGTNKRAPGVPARFSGSGSGDEFTLTISSLQSEDFAVYYCALWYSNLWVFGQGTKLTVLR
notes: IgG1 L234A L235A, kappa
In experiment [1], B7 registered a Kd of 12.6 nM, a koff of 0.00453 s⁻¹ and a kon of 359000 M⁻¹ s⁻¹. In addition, in experiment [2], the affinity, expressed as Kd, was 7.92 nM; the koff worked out at 0.00201 s⁻¹; the kon amounted to 253000 M⁻¹ s⁻¹.

B8: hzsp34.29 (antibody, human IgG1, kappa, L234A L235A, V domains shown)
VH: EVQLVESGGGLVQPGGSLKLSCAASGFTFNTYAMNWVRQASGKGLEWVGRIRSKYNNYATYYADSVKDRFTISRDDSKSTLYLQMNSLKTEDTAVYYCARHGNFGQSYVSWFAYWGQGTTVTVSS
VL: EIVMTQSPATLSVSPGERATLSCRSSTGAVTTSNYANWYQQKPGQAPRLLIYGTNKRAPGIPARFSGSGSGTEFTLTISSLQSEDFAVYYCALWYSNLWVFGQGTKLTVLR
notes: IgG1 L234A L235A, kappa
Take B8: the binding result in experiment [1] and in experiment [2] was “no binding” in each case.

B9: hzsp34.37 (antibody, human IgG1, kappa, L234A L235A, V domains shown)
VH: EVQLVESGGGLVQPGGSLKLSCAASGFTFNTYAMNWVRQASGKGLEWVGRIRSKYNNYATYYADSVKDRFTISRDDSKNTLYLQMNSLKTEDTAVYYCARHGNFGNSYVSWFAYWGQGTTVTVSS
VL: EIVMTQSPATLSVSPGERATLSCRSSTGAVTTSNYANWVQQKPGQAPRGLIGGTNKRAPGVPARFSGSGSGTEFTLTISSLQSEDFAVYYCALWYSNLWVFGQGTKLTVLR
notes: IgG1 L234A L235A, kappa
For B9, in experiment [1], the equilibrium dissociation constant (Kd) was 9.16 nM, the koff is 0.00399 s⁻¹ and the on-rate constant (kon) is 436000 M⁻¹ s⁻¹. In experiment [2], this molecule displayed a Kd of 6.24 nM, a koff of 0.002 s⁻¹ and a kon of 321000 M⁻¹ s⁻¹.

B10: hzsp34.35 (antibody, human IgG1, kappa, L234A L235A, V domains shown)
VH: EVQLVESGGGLVQPGGSLKLSCAASGFTFNTYAMNWVRQASGKGLEWVARIRSKYNNYATYYADSVKDRFTISRDDSKSTLYLQMNSLKTEDTAVYYCARHGNFGQSYVSWFAYWGQGTTVTVSS
VL: EIVMTQSPATLSVSPGERATLSCRSSTGAVTTSNYANWVQQKPGQAPRLLIGGTNKRAPGVPARFSGSGSGTEFTLTISSLQSEDFAVYYCALWYSNLWVFGQGTKLTVLR
notes: IgG1 L234A L235A, kappa
As to B10, the binding result in experiment [1] and in experiment [2] was “no binding” throughout.

B11: hzsp34.32 (antibody, human IgG1, kappa, L234A L235A, V domains shown)
VH: EVQLVESGGGLVQPGGSLKLSCAASGFTFNTYAMNWVRQASGKGLEWVGRIRSKYNNYATYYADSVKDRFTISRDDSKNTLYLQMNSLKTEDTAVYYCARHGNFGNSYVSWFAYWGQGTTVTVSS
VL: EIVMTQSPATLSVSPGERATLSCRSSTGAVTTSNYANWVQQKPGQAPRLLIGGTNKRAPGVPARFSGSGSGTEFTLTISSLQSEDFAVYYCALWYSNLWVFGQGTKLTVLR
notes: IgG1 L234A L235A, kappa
On to B11, for which the binding result in experiment [1] and in experiment [2] was “no binding” in each case.

B12: hzsp34.44 (antibody, human IgG1, kappa, L234A L235A, V domains shown)
VH: EVQLVESGGGLVQPGGSLKLSCAASGFTFNTYAMNWVRQASGKGLEWVGRIRSKYNNYATYYADSVKDRFTISRDDSKSTLYLQMNSLKTEDTAVYYCARHGNFGQSYVSWFAYWGQGTTVTVSS
VL: EIVMTQSPATLSVSPGERATLSCRSSTGAVTTSNYANWVQQKPGQAPRGLIGGTNKRAPGVPARFSGSGSGDEFTLTISSLQSEDFAVYYCALWYSNLWVFGQGTKLTVLR
notes: IgG1 L234A L235A, kappa
For the molecule B12, in experiment [1], the dissociation constant (Kd) is 16.5 nM, the koff worked out at 0.00581 s⁻¹ and the kon amounted to 353000 M⁻¹ s⁻¹. In experiment [2], this molecule yielded a Kd of 12.1 nM, a koff of 0.00293 s⁻¹ and a kon of 241000 M⁻¹ s⁻¹.

A word on the Kd: it is the constant that tells how readily two partners part at equilibrium. The koff is the rate constant with which the complex falls apart. One may read the kon as the second-order rate constant of association.

The values are drawn from US20230374132A1 (Innovent, published 2023).
